Columns and labels:
[1] = target: 1FD6 CAP45 scaffold N192D; experiment: ELISA, supernatant on His grab plates
[2] = target: 1FD6 CAP45 scaffold N143D; experiment: ELISA, supernatant on His grab plates
[3] = target: 1FD6 CAP45 scaffold N147D; experiment: ELISA, supernatant on His grab plates
[4] = target: 1FD6 CAP45 scaffold N156D; experiment: ELISA, supernatant on His grab plates
[5] = target: 1FD6-CAP45 V1V2 scaffold; experiment: ELISA, supernatant on His grab plates
[6] = target: 1FD6 CAP45 scaffold N160Q; experiment: ELISA, supernatant on His grab plates
[7] = target: 3168.V4.C10 (HIV-1)
[8] = target: SO18.18 (HIV-1)
[9] = target: DU172.17 (HIV-1)
[10] = target: 6644.V2.C33 (HIV-1)
[11] = target: CAP244.D3 (HIV-1)
[12] = target: CAP210.E8 (HIV-1)
[13] = target: ZM215.8 (HIV-1)
[14] = target: TV1.29 (HIV-1)
[15] = target: ZM109.4 (HIV-1)
[16] = target: BR025.9 (HIV-1)
[17] = target: 0077_V1_C16 (HIV-1)
[18] = target: Env of HIV-1 strain ZM135 (pseudovirus) (HIV-1)
[19] = target: DU156.12 (HIV-1)
[20] = target: CNE53 (HIV-1)
[21] = target: Env of HIV-1 strain 3873 (pseudovirus) (HIV-1)
[22] = target: CAP45.G3 (HIV-1)
[23] = target: 3637.V5.C3 (HIV-1)
[24] = target: 96ZM651_02 (HIV-1)
[25] = target: CNE15 (HIV-1)
[26] = target: Env of HIV-1 strain 6322 (pseudovirus) (HIV-1)
[27] = target: 6785.V5.C14 (HIV-1)
[28] = target: CNE40 (HIV-1)
[29] = target: CNE7 (HIV-1)
[30] = target: ZM214.15 (HIV-1)
[31] = target: ZA012.29 (HIV-1)
[32] = target: CNE58 (HIV-1)
[33] = target: Env of HIV-1 strain CNE30 (pseudovirus) (HIV-1)
[34] = target: DU123.06 (HIV-1)
[35] = target: ZM146.7 (HIV-1)
[36] = target: CNE31 (HIV-1)
[37] = target: DU151.02 (HIV-1)
[38] = target: CH117.4 (HIV-1)
[39] = target: TZA125.17 (HIV-1)
[40] = target: ZM106.9 (HIV-1)
[41] = target: ZM197.7 (HIV-1)
[42] = target: Env of HIV-1 strain 6471 (pseudovirus) (HIV-1)
[43] = target: DU422.01 (HIV-1)
[44] = target: MW965.26 (HIV-1)
[45] = target: Env of HIV-1 strain 6631 (pseudovirus) (HIV-1)
[46] = target: TZBD.02 (HIV-1)
[47] = target: ZM176.66 (HIV-1)
[48] = target: CH181.12 (HIV-1)
[49] = target: CNE40
[50] = target: Env of HIV-1 strain 3873 (pseudovirus) (HIV-1); remark: listed apart in the source
[51] = target: 6785.V5.C14
[52] = target: ZM109.4
[53] = target: ZA012.29
[54] = target: CAP244.D3
[55] = target: DU422.01
[56] = target: CH181.12
[57] = target: CAP45.G3
[58] = target: 3637.V5.C3
[59] = target: SO18.18
[60] = target: Env of HIV-1 strain 6631 (pseudovirus) (HIV-1); remark: listed apart in the source
[61] = target: CNE53
[62] = target: 6644.V2.C33
[63] = target: TV1.29

monoclonal antibody PG9
EC50 [1]: 0.2 µg/mL | EC50 [2]: 0.1 µg/mL | EC50 [3]: 0.1 µg/mL | EC50 [4]: 4.9 µg/mL | EC50 [5]: 0.2 µg/mL | EC50 [6]: > 50 µg/mL | neutralization IC80 [7]: 0.657 µg/mL | neutralization IC80 [8]: 0.227 µg/mL | neutralization IC80 [9]: 0.899 µg/mL | neutralization IC80 [10]: 0.12 µg/mL | neutralization IC80 [11]: 0.362 µg/mL | neutralization IC80 [12]: 0.501 µg/mL | neutralization IC80 [13]: 0.228 µg/mL | neutralization IC80 [14]: 0.044 µg/mL | neutralization IC80 [15]: 2.64 µg/mL | neutralization IC80 [16]: 0.215 µg/mL | neutralization IC80 [17]: 0.343 µg/mL | neutralization IC80 [18]: > 50 µg/mL | neutralization IC80 [19]: 0.143 µg/mL | neutralization IC80 [20]: 0.809 µg/mL | neutralization IC80 [21]: > 50 µg/mL | neutralization IC80 [22]: < 0.023 µg/mL | neutralization IC80 [23]: > 50 µg/mL | neutralization IC80 [24]: > 50 µg/mL | neutralization IC80 [25]: < 0.023 µg/mL | neutralization IC80 [26]: > 50 µg/mL | neutralization IC80 [27]: 0.094 µg/mL | neutralization IC80 [28]: 20 µg/mL | neutralization IC80 [29]: 4.5 µg/mL | neutralization IC80 [30]: > 50 µg/mL | neutralization IC80 [31]: > 50 µg/mL | neutralization IC80 [32]: 0.068 µg/mL | neutralization IC80 [33]: > 50 µg/mL | neutralization IC80 [34]: 0.477 µg/mL | neutralization IC80 [35]: 6.78 µg/mL | neutralization IC80 [36]: > 50 µg/mL | neutralization IC80 [37]: 0.057 µg/mL | neutralization IC80 [38]: 0.03 µg/mL | neutralization IC80 [39]: 1.21 µg/mL | neutralization IC80 [40]: 6.58 µg/mL | neutralization IC80 [41]: 1.92 µg/mL | neutralization IC80 [42]: > 50 µg/mL | neutralization IC80 [43]: 15.8 µg/mL | neutralization IC80 [44]: 49.9 µg/mL | neutralization IC80 [45]: > 50 µg/mL | neutralization IC80 [46]: 1.3 µg/mL | neutralization IC80 [47]: 0.05 µg/mL | neutralization IC80 [48]: 0.04 µg/mL | neutralization IC50 [49]: 1.16 µg/mL | neutralization IC50 [50]: > 50 µg/mL | neutralization IC50 [51]: < 0.023 µg/mL | neutralization IC50 [52]: 0.106 µg/mL | neutralization IC50 [53]: 27 µg/mL | neutralization IC50 [54]: 0.088 µg/mL | neutralization IC50 [55]: 0.303 µg/mL | neutralization IC50 [56]: 0.008 µg/mL | neutralization IC50 [57]: < 0.023 µg/mL | neutralization IC50 [58]: > 50 µg/mL | neutralization IC50 [59]: 0.061 µg/mL | neutralization IC50 [60]: > 50 µg/mL | neutralization IC50 [61]: 0.147 µg/mL | neutralization IC50 [62]: 0.033 µg/mL | neutralization IC50 [63]: 0.008 µg/mL

monoclonal antibody PG16
EC50 [1]: 27 µg/mL | EC50 [2]: 3.3 µg/mL | EC50 [3]: 0.7 µg/mL | EC50 [4]: > 50 µg/mL | EC50 [5]: 9.1 µg/mL | EC50 [6]: > 50 µg/mL | neutralization IC80 [7]: 0.515 µg/mL | neutralization IC80 [8]: 0.136 µg/mL | neutralization IC80 [9]: 0.134 µg/mL | neutralization IC80 [10]: > 50 µg/mL | neutralization IC80 [11]: 0.058 µg/mL | neutralization IC80 [12]: 0.882 µg/mL | neutralization IC80 [13]: > 50 µg/mL | neutralization IC80 [14]: 0.15 µg/mL | neutralization IC80 [15]: > 50 µg/mL | neutralization IC80 [16]: 0.049 µg/mL | neutralization IC80 [17]: 0.075 µg/mL | neutralization IC80 [18]: > 50 µg/mL | neutralization IC80 [19]: < 0.023 µg/mL | neutralization IC80 [20]: > 50 µg/mL | neutralization IC80 [21]: > 50 µg/mL | neutralization IC80 [22]: < 0.023 µg/mL | neutralization IC80 [23]: > 50 µg/mL | neutralization IC80 [24]: > 50 µg/mL | neutralization IC80 [25]: < 0.023 µg/mL | neutralization IC80 [26]: > 50 µg/mL | neutralization IC80 [27]: < 0.023 µg/mL | neutralization IC80 [28]: > 50 µg/mL | neutralization IC80 [29]: 1.91 µg/mL | neutralization IC80 [30]: > 50 µg/mL | neutralization IC80 [31]: > 50 µg/mL | neutralization IC80 [32]: < 0.023 µg/mL | neutralization IC80 [33]: > 50 µg/mL | neutralization IC80 [34]: 0.163 µg/mL | neutralization IC80 [35]: > 50 µg/mL | neutralization IC80 [36]: > 50 µg/mL | neutralization IC80 [37]: < 0.023 µg/mL | neutralization IC80 [38]: 0.028 µg/mL | neutralization IC80 [39]: 0.719 µg/mL | neutralization IC80 [40]: > 50 µg/mL | neutralization IC80 [41]: 6.67 µg/mL | neutralization IC80 [42]: > 50 µg/mL | neutralization IC80 [43]: 49.9 µg/mL | neutralization IC80 [44]: > 50 µg/mL | neutralization IC80 [45]: > 50 µg/mL | neutralization IC80 [46]: 0.175 µg/mL | neutralization IC80 [47]: 0.01 µg/mL | neutralization IC80 [48]: 0.01 µg/mL | neutralization IC50 [49]: 49 µg/mL | neutralization IC50 [50]: 12.2 µg/mL | neutralization IC50 [51]: < 0.023 µg/mL | neutralization IC50 [52]: 4.93 µg/mL | neutralization IC50 [53]: 0.631 µg/mL | neutralization IC50 [54]: < 0.023 µg/mL | neutralization IC50 [55]: < 0.023 µg/mL | neutralization IC50 [56]: 0.002 µg/mL | neutralization IC50 [57]: < 0.023 µg/mL | neutralization IC50 [58]: > 50 µg/mL | neutralization IC50 [59]: 0.023 µg/mL | neutralization IC50 [60]: > 50 µg/mL | neutralization IC50 [61]: > 50 µg/mL | neutralization IC50 [62]: 35.3 µg/mL | neutralization IC50 [63]: 0.002 µg/mL
